Measured values as given in patent US20250304658A1.
Positions count from the first letter of the chain named. Values joined by “and” are separate entries in the source; they are usually repeats but may differ in a detail not shown here. Equal entries are not always repeated.

B1: 15C10 (antibody, V domains shown)
VH: EVQLLESGGGLVQPGGSLRLSCAASGFTFSSFAMSWVRQAPGKGLEWVSGISASGGTTNYADSVKGRFTISRDNSKNTLYLQMSSLRAEDTAEYYCAKDRFLEWVEGFDPWGQGILVTVSP
VL: DIQMTQSPSSLSASVGDRVTITCRASQSIGRFLIWYQQKPGKAPKLLLYATSSLQSGVPARFTGSGSGTDFTLTIGSLQPEDFATYYCQQSYITPLTFGGGTKVEIK
B2: 2B9 (antibody, V domains shown)
VH: EVQLLESGGGLAQPGKSLRLSCAASGFTFSGFAMSWVRQAPGKGLEWVSGISGSGDITYYADSVKGRFTISRDNSKSTLYLQMNSLGAEDTAVYYCAKDPYNWNHGVYGMDVWGQGTTVTVSS
VL: DIQMTQSPSSLSASVGDRVTITCRASQSISSYLNWYQQKPGKAPKFLIYGASSLQSGVPSRFSGSGSGTDFTLTISSLQPEDFAAYYCQQSFNAPLTFGGGTKVEIK
B3: 9G9 (antibody, V domains shown)
VH: EVQLLESGGGLVQPGGSLRLSCAASGFTFHNYAMSWVRQAPGKGLEWVSGISGSGGTAYYADSVKGRFTISRDNSKNTLYLQMNSLRADDTALYYCAKDRFLEWVEGFDSWGQGTLVTVSS
VL: B1 VL with R31S, L48I, T51A, A60S, T63S, T74I, G76S, I93N
B4: 6H12 (antibody, V domains shown)
VH: EVQLVESGGGLVQPGGSLRLSCAASGFTFSSYEMNWVRQAPGKGLEWVSYISSGGSSIKYADSVRGRFAFSRDNAENSVHLQMNSLRAEDTAVYYCARVGGSYYYSYAMDVWGQGTAVTVSS
VL: DIQLTQSPSFLSASVGDRVTITCWASQDISSYLAWYQQKPGKAPKLLIYAASTLQSGVPSRFTGSGSGTEFTLTISSLQPEDFATYYCQQPHNSPFSFGPGTKVDVK
B5: 14F5 (antibody, V domains shown)
VH: B1 VH with A24V
VL: B1 VL
B6: 7H8 (antibody, V domains shown)
VH: EVQLLESGGGLVQPGGSLRLSCAASGFAFHTYDMTWVRQAPGKGLEWVSGVVGSGINTYYADSVKGRFTISRDNSKSTLYLQMNSLRAEDTAVYYCAKDSSSWFSLHYWGQGTLVTVSS
VL: DIQMTQSPSTLSASVGDRVTITCRASQSISNWLAWYQQKPGKAPKLLIYKASSLESGVPSRFSGSGSGTDFTLTISSLQPDDFASYYCQQYRSYAYTFGQGTKLEIT
B7: 7A4 (antibody, V domains shown)
VH: QVQLVESGGDLVKPGGSLRLSCVASGFTFSDYYMNWIRLPPGKGLEWISYIDSSAGAIYYADSVKGRFTVSRDDAKNSLFLHMNSLRADDTAVYYCVRERRDGHKIFDYWGPGTLVTVSS
VL: DIVMTQSPDSLAVSLGERATINCKSSQNILYSSNNKNYLAWYQQKAGQPPKLLIFWSSIRESGVPDRFSGSGSGTDFTLTISSLQAEDVAVYYCQQYYSSPYNFGRGTTLEIK
B8: 9B4 (antibody, V domains shown)
VH: B7 VH with V97A, D102E, Y109F
VL: B7 VL with V13L, W41C, I59T
B9: 8A11 (antibody, V domains shown)
VH: B7 VH with I58T, D89E, V97A, D102S, Y109C
VL: B7 VL with I59T
B10: 2F7 (antibody, V domains shown)
VH: B7 VH with D10G, K43R, E46Q, F80Y, H82Q, V97A, Y109W, P112Q
VL: B7 VL with S32T, A40G, F55Y, I59T, E61N, Q95H, N103T, R106Q, T109N
B11: 1E2 (antibody, V domains shown)
VH: B7 VH with I48V, K65R, V97A, Y109C
VL: B7 VL with I59T, S82N
B12: 2H1 (antibody, V domains shown)
VH: B7 VH with V97A, Y109C
VL: B7 VL with A46T, I59T
B13: 8D10 (antibody, V domains shown)
VH: B7 VH with Q3H, L79M, V97A
VL: B7 VL with I59T
B14: 5A8 (antibody, V domains shown)
VH: B7 VH with K43R, N77K, H82Y, V97A
VL: B7 VL with I59T, Q95H
B15: 1H10 (antibody, V domains shown)
VH: B7 VH with Q3H, L39M, S85N, V97A, Y109C
VL: B7 VL with I59T
B16: 4F7 (antibody, V domains shown)
VH: B7 VH with S85N, V97A, Y109C
VL: B7 VL with I59T
B17: 11D12 (antibody, V domains shown)
VH: B4 VH with A69T, H80F, A88G
VL: B4 VL with T63S, H92N, S94Y

Target: BK virus VP1 protein, genotype I (BK virus) (UniProt P03088)
Test: cell-based or functional assay

**Q.** Which EC50, pseudovirus neutralization does the source give for B1 here?
**A.** Its EC50, pseudovirus neutralization is 0.1 pM.

**Q.** B2 was tested. Which EC50, pseudovirus neutralization did it give?
**A.** The EC50, pseudovirus neutralization was 4.2 pM.

**Q.** For B3, which EC50, pseudovirus neutralization (mAb mixed with irrelevant isotype matched mAb M2) is on record?
**A.** Its EC50, pseudovirus neutralization (mAb mixed with irrelevant isotype matched mAb M2) is 2.76 pM.

**Q.** With B4 as the binder, how does the EC50, pseudovirus neutralization (mAb mixed with irrelevant isotype matched mAb M2) read?
**A.** The EC50, pseudovirus neutralization (mAb mixed with irrelevant isotype matched mAb M2) was 0.96 pM.

Target: BK virus VP1 protein, genotype I (BK virus) (UniProt P03088)
Test: cell-based or functional assay
Remark: another data set of the same source

**Q.** Which EC50, pseudovirus neutralization does the source give for B1 here?
**A.** The EC50, pseudovirus neutralization was 9.4 pM.

**Q.** How did the EC50, pseudovirus neutralization turn out when B5 was run?
**A.** The EC50, pseudovirus neutralization was 10.1 pM.

**Q.** Which EC50, pseudovirus neutralization does the source give for B6 here?
**A.** The EC50, pseudovirus neutralization was 59.6 pM.

**Q.** B7 was tested. Which EC50, pseudovirus neutralization did it give?
**A.** The EC50, pseudovirus neutralization was 9.1 pM.

**Q.** For B8, which EC50, pseudovirus neutralization is on record?
**A.** Its EC50, pseudovirus neutralization is 72.5 pM.

**Q.** With B9 as the binder, how does the EC50, pseudovirus neutralization read?
**A.** The EC50, pseudovirus neutralization was 108 pM.

**Q.** With B10 as the binder, how does the EC50, pseudovirus neutralization read?
**A.** Its EC50, pseudovirus neutralization is 52.5 pM.

**Q.** How did the EC50, pseudovirus neutralization turn out when B11 was run?
**A.** Its EC50, pseudovirus neutralization is 59 pM.

**Q.** Which EC50, pseudovirus neutralization does the source give for B12 here?
**A.** The EC50, pseudovirus neutralization was 20.2 pM and 41.8 pM.

**Q.** How did the EC50, pseudovirus neutralization turn out when B13 was run?
**A.** The EC50, pseudovirus neutralization was 62.9 pM.

**Q.** B14 was tested. Which EC50, pseudovirus neutralization did it give?
**A.** The EC50, pseudovirus neutralization was 20.1 pM.

**Q.** For B15, which EC50, pseudovirus neutralization is on record?
**A.** Its EC50, pseudovirus neutralization is 68.4 pM.

**Q.** Which EC50, pseudovirus neutralization does the source give for B16 here?
**A.** The EC50, pseudovirus neutralization was 32.5 pM.

**Q.** For B2, which EC50, pseudovirus neutralization is on record?
**A.** The EC50, pseudovirus neutralization was 32.2 pM.

**Q.** What about the EC50, pseudovirus neutralization (mAb mixed with irrelevant isotype matched mAb M2) of the same binder?
**A.** Its EC50, pseudovirus neutralization (mAb mixed with irrelevant isotype matched mAb M2) is 2.77 pM.

**Q.** Which EC50, pseudovirus neutralization does the source give for B3 here?
**A.** The EC50, pseudovirus neutralization was 4.7 pM.

**Q.** With B4 as the binder, how does the EC50, pseudovirus neutralization read?
**A.** The EC50, pseudovirus neutralization was 3.9 pM.

**Q.** Which EC50, pseudovirus neutralization does the source give for B17 here?
**A.** The EC50, pseudovirus neutralization was 10.9 pM.
